Common to all, as to assay: ELISA; host protein coated on microtiter wells; recombinant protein varied from 0 to 2 μM; absorbance with BSA subtracted; apparent Kd from the half-maximal binding concentration (GraphPad Prism 6)
The target in assay [1] is collagen Type I (purified from rat tail) (rat) (UniProt P02454).
Assay [2] concerns the target collagen Type IV (purified from basement membrane of Engelbreth-Holm-Swarm mouse sarcoma) (mouse) (UniProt P02463).
In assay [3] the target is elastin (purified from bovine neck ligament) (bovine) (UniProt P04985).
The target in assay [4] is fibrinogen (purified from human plasma) (human) (UniProt P02671).
For assay [5], the target named is laminin (purified from basement membrane of Engelbreth-Holm-Swarm mouse sarcoma) (mouse) (UniProt P19137).
The target in assay [6] is plasma fibronectin (purified from human plasma) (human).
The target in assay [7] is plasminogen (purified from human plasma) (human).

Values joined by “and” are separate entries in the source; they are usually repeats but may differ in a detail not shown here. Identical values can stand only once.

GroEL protein of Leptospira interrogans (recombinant, His-tagged), sequence (P61438 whole entry): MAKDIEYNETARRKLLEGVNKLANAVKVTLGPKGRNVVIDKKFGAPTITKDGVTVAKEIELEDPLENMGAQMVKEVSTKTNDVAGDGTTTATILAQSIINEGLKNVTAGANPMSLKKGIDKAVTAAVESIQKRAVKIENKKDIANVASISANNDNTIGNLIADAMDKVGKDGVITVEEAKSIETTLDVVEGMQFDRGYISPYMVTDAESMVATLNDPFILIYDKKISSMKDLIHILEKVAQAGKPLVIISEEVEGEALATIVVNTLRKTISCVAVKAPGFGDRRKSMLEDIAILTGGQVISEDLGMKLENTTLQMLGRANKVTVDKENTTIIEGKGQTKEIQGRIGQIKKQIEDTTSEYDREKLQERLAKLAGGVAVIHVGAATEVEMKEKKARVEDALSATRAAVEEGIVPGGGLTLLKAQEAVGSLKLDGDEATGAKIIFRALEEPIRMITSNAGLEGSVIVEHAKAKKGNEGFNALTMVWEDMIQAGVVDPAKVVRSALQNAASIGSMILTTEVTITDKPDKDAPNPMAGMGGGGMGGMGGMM
collagen Type IV (purified from basement membrane of Engelbreth-Holm-Swarm mouse sarcoma) (mouse), sequence (P02463 173-1669, chain 1 of 2): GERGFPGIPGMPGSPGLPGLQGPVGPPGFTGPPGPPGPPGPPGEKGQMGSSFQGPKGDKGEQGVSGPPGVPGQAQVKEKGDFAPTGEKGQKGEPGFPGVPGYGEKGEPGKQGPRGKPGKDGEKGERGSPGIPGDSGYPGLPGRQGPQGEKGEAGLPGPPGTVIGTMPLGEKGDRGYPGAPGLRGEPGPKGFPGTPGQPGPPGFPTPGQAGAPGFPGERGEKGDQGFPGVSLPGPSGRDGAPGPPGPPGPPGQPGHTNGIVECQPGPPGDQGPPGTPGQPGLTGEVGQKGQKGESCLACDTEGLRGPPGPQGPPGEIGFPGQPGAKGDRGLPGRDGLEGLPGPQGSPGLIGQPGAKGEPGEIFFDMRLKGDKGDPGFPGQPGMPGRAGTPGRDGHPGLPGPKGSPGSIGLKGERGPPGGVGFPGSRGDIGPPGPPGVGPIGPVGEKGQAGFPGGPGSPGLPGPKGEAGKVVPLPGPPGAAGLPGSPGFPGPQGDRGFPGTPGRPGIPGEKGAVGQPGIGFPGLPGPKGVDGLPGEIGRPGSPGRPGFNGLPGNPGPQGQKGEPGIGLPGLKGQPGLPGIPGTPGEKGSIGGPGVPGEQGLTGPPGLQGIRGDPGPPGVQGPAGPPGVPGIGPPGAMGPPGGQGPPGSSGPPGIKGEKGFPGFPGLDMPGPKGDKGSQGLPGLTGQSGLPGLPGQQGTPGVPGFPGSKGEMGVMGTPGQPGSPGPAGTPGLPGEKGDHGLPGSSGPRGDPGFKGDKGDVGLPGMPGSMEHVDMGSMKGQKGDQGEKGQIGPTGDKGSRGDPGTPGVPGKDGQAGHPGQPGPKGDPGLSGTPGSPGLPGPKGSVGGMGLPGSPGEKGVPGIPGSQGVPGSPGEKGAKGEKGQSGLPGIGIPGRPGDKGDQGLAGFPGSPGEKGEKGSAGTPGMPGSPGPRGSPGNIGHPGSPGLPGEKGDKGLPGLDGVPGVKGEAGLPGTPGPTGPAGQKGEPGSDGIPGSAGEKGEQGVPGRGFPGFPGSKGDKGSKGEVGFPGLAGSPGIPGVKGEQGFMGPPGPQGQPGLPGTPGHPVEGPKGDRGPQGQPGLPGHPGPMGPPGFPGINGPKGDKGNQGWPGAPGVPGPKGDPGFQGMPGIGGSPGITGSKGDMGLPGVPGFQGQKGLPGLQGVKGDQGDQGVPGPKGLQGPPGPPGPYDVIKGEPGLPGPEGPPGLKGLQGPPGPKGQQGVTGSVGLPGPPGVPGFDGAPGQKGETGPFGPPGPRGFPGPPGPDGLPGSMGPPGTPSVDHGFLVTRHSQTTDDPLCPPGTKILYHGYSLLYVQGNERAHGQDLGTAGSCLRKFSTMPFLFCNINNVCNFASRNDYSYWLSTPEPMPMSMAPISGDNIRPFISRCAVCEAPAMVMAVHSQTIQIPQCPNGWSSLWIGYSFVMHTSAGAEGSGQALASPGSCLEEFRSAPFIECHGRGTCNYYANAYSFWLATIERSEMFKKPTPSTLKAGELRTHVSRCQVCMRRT
collagen Type IV (purified from basement membrane of Engelbreth-Holm-Swarm mouse sarcoma) (mouse), sequence (P08122 184-1707, chain 2 of 2, further chain): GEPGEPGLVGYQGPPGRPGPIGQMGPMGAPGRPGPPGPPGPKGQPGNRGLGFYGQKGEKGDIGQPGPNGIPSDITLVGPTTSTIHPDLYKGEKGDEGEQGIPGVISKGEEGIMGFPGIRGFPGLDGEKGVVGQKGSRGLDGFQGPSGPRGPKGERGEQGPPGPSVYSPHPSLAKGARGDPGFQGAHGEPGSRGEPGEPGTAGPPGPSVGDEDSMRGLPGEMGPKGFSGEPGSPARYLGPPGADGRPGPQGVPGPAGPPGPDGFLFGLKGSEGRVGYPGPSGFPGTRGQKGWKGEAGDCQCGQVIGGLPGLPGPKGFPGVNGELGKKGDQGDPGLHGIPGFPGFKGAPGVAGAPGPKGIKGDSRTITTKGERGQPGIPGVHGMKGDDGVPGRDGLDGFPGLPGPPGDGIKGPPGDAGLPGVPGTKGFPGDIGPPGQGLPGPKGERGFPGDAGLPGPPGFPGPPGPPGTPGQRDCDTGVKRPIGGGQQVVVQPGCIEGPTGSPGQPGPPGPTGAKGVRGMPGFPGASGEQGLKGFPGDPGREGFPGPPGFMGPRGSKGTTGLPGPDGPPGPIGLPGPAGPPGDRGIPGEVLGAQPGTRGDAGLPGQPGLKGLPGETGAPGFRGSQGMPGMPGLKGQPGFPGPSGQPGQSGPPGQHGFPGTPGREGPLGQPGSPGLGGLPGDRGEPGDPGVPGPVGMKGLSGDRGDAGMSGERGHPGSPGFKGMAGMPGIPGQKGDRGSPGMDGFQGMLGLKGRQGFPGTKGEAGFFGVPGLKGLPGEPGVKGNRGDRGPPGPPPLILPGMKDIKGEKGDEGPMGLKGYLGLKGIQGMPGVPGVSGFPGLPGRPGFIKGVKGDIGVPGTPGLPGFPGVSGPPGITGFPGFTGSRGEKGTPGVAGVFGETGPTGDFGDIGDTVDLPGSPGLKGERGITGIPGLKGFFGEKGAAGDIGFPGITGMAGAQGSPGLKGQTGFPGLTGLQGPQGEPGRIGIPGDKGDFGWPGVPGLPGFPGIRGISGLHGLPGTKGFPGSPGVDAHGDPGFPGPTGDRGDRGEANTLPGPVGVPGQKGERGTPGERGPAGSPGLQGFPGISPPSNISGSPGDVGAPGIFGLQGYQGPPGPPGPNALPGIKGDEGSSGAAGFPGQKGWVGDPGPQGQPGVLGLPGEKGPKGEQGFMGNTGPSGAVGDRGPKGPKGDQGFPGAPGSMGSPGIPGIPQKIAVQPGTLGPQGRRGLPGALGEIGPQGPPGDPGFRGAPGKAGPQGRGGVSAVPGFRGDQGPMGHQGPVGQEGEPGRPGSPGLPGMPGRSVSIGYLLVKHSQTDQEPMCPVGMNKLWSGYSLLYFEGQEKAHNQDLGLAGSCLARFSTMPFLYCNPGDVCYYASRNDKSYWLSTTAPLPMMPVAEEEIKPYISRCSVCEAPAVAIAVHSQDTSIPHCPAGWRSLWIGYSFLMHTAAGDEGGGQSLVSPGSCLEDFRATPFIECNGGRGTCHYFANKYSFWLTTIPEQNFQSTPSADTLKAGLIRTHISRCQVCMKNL
fibrinogen (purified from human plasma) (human), sequence (P02671 other isoform, or with tags, fused parts or gaps, chain 1 of 3): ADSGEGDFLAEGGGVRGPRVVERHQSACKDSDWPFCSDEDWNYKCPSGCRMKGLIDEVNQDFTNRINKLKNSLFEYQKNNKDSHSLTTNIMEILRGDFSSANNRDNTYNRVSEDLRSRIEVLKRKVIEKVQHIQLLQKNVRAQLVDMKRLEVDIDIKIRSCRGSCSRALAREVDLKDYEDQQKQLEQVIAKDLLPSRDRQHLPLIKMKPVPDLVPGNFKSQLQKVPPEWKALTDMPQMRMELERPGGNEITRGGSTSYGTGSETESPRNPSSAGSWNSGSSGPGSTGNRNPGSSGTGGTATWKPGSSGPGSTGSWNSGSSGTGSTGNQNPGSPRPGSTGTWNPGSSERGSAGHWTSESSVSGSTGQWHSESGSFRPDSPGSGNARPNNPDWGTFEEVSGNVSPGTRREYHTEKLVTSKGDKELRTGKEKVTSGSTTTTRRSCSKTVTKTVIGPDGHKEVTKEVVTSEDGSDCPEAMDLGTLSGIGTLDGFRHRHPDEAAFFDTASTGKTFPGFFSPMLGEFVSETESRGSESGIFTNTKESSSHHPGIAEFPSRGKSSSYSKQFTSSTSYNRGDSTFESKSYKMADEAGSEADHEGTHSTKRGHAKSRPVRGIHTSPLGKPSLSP
fibrinogen (purified from human plasma) (human), sequence (P02675 31-491, chain 2 of 3, further chain): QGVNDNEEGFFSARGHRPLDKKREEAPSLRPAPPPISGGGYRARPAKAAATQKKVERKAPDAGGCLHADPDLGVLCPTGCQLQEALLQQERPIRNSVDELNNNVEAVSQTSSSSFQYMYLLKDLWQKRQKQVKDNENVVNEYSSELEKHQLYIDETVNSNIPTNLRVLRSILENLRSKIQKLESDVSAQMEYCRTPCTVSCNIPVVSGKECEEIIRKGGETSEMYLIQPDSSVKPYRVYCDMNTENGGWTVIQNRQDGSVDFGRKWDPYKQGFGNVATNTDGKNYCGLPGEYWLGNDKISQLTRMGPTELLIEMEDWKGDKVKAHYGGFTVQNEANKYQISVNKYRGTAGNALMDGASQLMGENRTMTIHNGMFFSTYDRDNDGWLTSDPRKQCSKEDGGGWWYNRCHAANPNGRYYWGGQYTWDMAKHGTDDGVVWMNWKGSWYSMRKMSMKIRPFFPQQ
fibrinogen (purified from human plasma) (human), sequence (P02679 other isoform, or with tags, fused parts or gaps, chain 3 of 3, further chain): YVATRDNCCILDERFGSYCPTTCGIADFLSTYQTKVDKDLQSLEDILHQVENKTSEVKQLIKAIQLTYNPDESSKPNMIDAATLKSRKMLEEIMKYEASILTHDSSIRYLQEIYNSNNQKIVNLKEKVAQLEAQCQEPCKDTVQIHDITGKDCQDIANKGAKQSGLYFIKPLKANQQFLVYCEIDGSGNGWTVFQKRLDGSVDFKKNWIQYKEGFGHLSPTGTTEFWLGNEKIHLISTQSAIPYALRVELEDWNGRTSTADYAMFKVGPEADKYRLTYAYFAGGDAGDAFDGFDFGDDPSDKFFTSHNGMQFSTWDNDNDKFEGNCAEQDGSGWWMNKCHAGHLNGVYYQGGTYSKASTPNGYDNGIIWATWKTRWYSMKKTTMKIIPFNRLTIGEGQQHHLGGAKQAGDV

Turning to “leptospiral protein 25 (Lp25) (natural protein)”, the Kd in assay [1] was 699 nM; in assay [2] it was 2420 nM; in assay [3], 606 nM; in assay [4], 606 nM; in assay [5] it was 1140 nM; in assay [6], 5370 nM and 6370 nM. The Kd in assay [7] amounted to 4430 nM.

For the substance “GroEL protein of Leptospira interrogans (recombinant, His-tagged) (from UniProt P61438 1-546) (natural protein)”, the Kd in assay [6] is 34 nM and 10 nM; in assay [7] it was 31 nM.

As to “truncated form of leptospiral immunoglobulin-like protein B (LigBC, amino acids 631-1156) (from UniProt Q72V39 631-1156) (domain or fragment)”, the Kd was 15 nM and 6 nM in assay [6]; 5 nM in assay [7].

The values above are taken from paper PMC8011160.
